Reference: PMC10215022 (mAbs, 2023)

B1: imdevimab (REGN10987) (antibody, V domains shown)
VH: QVQLVESGGGVVQPGRSLRLSCAASGFTFSNYAMYWVRQAPGKGLEWVAVISYDGSNKYYADSVKGRFTISRDNSKNTLYLQMNSLRTEDTAVYYCASGSDYGDYLLVYWGQGTLVTVSS
VL: QSALTQPASVSGSPGQSITISCTGTSSDVGGYNYVSWYQQHPGKAPKLMIYDVSKRPSGVSNRFSGSKSGNTASLTISGLQSEDEADYYCNSLTSISTWVFGGGTKLTVL
B2: casirivimab (REGN10933) (antibody, V domains shown)
VH: QVQLVESGGGLVKPGGSLRLSCAASGFTFSDYYMSWIRQAPGKGLEWVSYITYSGSTIYYADSVKGRFTISRDNAKSSLYLQMNSLRAEDTAVYYCARDRGTTMVPFDYWGQGTLVTVSS
VL: DIQMTQSPSSLSASVGDRVTITCQASQDITNYLNWYQQKPGKAPKLLIYAASNLETGVPSRFSGSGSGTDFTFTISGLQPEDIATYYCQQYDNLPLTFGGGTKVEIK

Target: SARS-CoV-2 Wuhan (WT) spike protein RBD, His-tagged (SARS-CoV-2 Wuhan (WT), UniProt P0DTC2)
Experiment: SPR

Binder	Kd [nM]	koff [s⁻¹]	kon [M⁻¹ s⁻¹]
B1	0.087	0.00029	3.4e+06
B2	0.071	0.00021	3e+06
